# Source: the supplement of paper PMC10567573
# B1: OAS1 (parent)
# chain: LQLGEGVEFDVLPAFDALGQLTGG
# Variants of: B1
# Assay: protein stability index of a GFP-peptide fusion (GPS, HEK-293T) (PSI 1-6); higher = more stable
# Details: c terminus: a fixed tail appended
# 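Also: lentivirally expressed fusions sorted by FACS into six bins by GFP to DsRed ratio, PSI derived from sequencing read proportions per bin multiplied by bin number.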
row,Variant,protein stability index
1,LQLGEGVEFDVLPAFDALGKLTGG [Q20K],1.9
2,LQLGEGVEFDVLPAFDALGGLTGG [Q20G],1.82
3,LQLGEGVEFDVLPAFDALGMLTGG [Q20M],1.82
4,LQLGEGVEFDVLPAFDALGILTGG [Q20I],2.06
5,LQLGEGVEFDVLPAFDALGELTGG [Q20E],2.02
6,LQLGEGVEFDVLPAFDALGHLTGG [Q20H],2.94
7,LQLGEGVEFDVLPAFDALGFLTGG [Q20F],1.79
8,LQLGEGVEFDVLPAFDALGSLTGG [Q20S],1.77
9,LQLGEGVEFDVLPAFDALGLLTGG [Q20L],1.02
10,LQLGEGVEFDVLPAFDALGDLTGG [Q20D],2.65
11,LQLGEGVEFDVLPAFDALGRLTGG [Q20R],1.51
12,LQLGEGVEFDVLPAFDALGTLTGG [Q20T],1.76
13,LQLGEGVEFDVLPAFDALGNLTGG [Q20N],2.28
14,LQLGEGVEFDVLPAFDALGCLTGG [Q20C],1.29
15,LQLGEGVEFDVLPAFDALGPLTGG [Q20P],1.78
16,LQLGEGVECDVLPAFDALGQLTGG [F9C],2.37
17,LQLGEGVESDVLPAFDALGQLTGG [F9S],4.03
18,LQLGEGVEHDVLPAFDALGQLTGG [F9H],4.18
19,LQLGEGVEDDVLPAFDALGQLTGG [F9D],3.88
20,LQLGEGVERDVLPAFDALGQLTGG [F9R],3.67
21,LQLGEGVEPDVLPAFDALGQLTGG [F9P],3.64
22,LQLGEGVEQDVLPAFDALGQLTGG [F9Q],3.84
23,LQLGEGVEIDVLPAFDALGQLTGG [F9I],1.65
24,LQLGEGVEKDVLPAFDALGQLTGG [F9K],3.69

row,Variant,protein stability index
1,LQLGEGVENDVLPAFDALGQLTGG [F9N],4.57
2,LQLGEGVEMDVLPAFDALGQLTGG [F9M],2.88
3,LQLGEGVEEDVLPAFDALGQLTGG [F9E],4.37
4,LQLGEGVEFDHLPAFDALGQLTGG [V11H],2.83
5,LQLGEGVEFDRLPAFDALGQLTGG [V11R],2.54
6,LQLGEGVEFDALPAFDALGQLTGG [V11A],1.91
7,LQLGEGVEFDCLPAFDALGQLTGG [V11C],2
8,LQLGEGVEFDLLPAFDALGQLTGG [V11L],1.96
9,LQLGEGVEFDPLPAFDALGQLTGG [V11P],2.3
10,LQLGEGVEFDKLPAFDALGQLTGG [V11K],2.72
11,LQLGEGVEFDTLPAFDALGQLTGG [V11T],2.21
12,LQLGEGVEFDFLPAFDALGQLTGG [V11F],1.59
13,LQLGEGVEFDSLPAFDALGQLTGG [V11S],2.59
14,LQLGEGVEFDELPAFDALGQLTGG [V11E],2.95
15,LQLGEGVEFDMLPAFDALGQLTGG [V11M],2.33
16,LQLGEGVEFDQLPAFDALGQLTGG [V11Q],3.62
17,LQLGEGVEFDNLPAFDALGQLTGG [V11N],3.33
18,LQLGEGVEFDWLPAFDALGQLTGG [V11W],1.16
19,LQLGEGVEFDILPAFDALGQLTGG [V11I],1.49
20,LQLGEGVEFDVLPAMDALGQLTGG [F15M],1.96
21,LQLGEGVEFDVLPACDALGQLTGG [F15C],1.86
22,LQLGEGVEFDVLPADDALGQLTGG [F15D],3.12
23,LQLGEGVEFDVLPAIDALGQLTGG [F15I],2.27
24,LQLGEGVEFDVLPASDALGQLTGG [F15S],2.73

row,Variant,protein stability index
1,LQLGEGVEFDVLPAWDALGQLTGG [F15W],1.22
2,LQLGEGVEFDVLPAEDALGQLTGG [F15E],3.57
3,LQLGEGVEFDVLPAPDALGQLTGG [F15P],3.45
4,LQLGEGVEFDVLPALDALGQLTGG [F15L],2.48
5,LQLGEGVEFDVLPARDALGQLTGG [F15R],2.74
6,LQLGEGVEFDVLPAYDALGQLTGG [F15Y],1.47
7,LQLGEGVEFDVLPAADALGQLTGG [F15A],2.92
8,LQLGEGVEFDVLPAKDALGQLTGG [F15K],4.1
9,LQLGEGVEFDVLPAVDALGQLTGG [F15V],1.65
10,LQLGEGVEFDVLPATDALGQLTGG [F15T],3.48
11,LQLGEGVEFDVLPAHDALGQLTGG [F15H],3.1
12,LQLGEGVEFDVLPAGDALGQLTGG [F15G],3.56
13,LQLGEGVEFDVLPPFDALGQLTGG [A14P],2.02
14,LQLGEGVEFDVLPDFDALGQLTGG [A14D],1.67
15,LQLGEGVEFDVLPNFDALGQLTGG [A14N],1.86
16,LQLGEGVEFDVLPGFDALGQLTGG [A14G],1.88
17,LQLGEGVEFDVLPCFDALGQLTGG [A14C],1.37
18,LQLGEGVEFDVLPSFDALGQLTGG [A14S],1.55
19,LQLGEGVEFDVLPIFDALGQLTGG [A14I],1.48
20,LQLGEGVEFDVLPHFDALGQLTGG [A14H],1.58
21,LQLGEGVEFDVLPYFDALGQLTGG [A14Y],1.53
22,LQLGEGVEFDVLPVFDALGQLTGG [A14V],1.19
23,LQLGEGVEFDVLPQFDALGQLTGG [A14Q],2.46
24,LQLGEGVEFDVLPKFDALGQLTGG [A14K],1.61

row,Variant,protein stability index
1,LQLGEGVEFDVLPRFDALGQLTGG [A14R],1.29
2,LQLGEGVEFDVLPTFDALGQLTGG [A14T],2.34
3,LQLGEGVEFDVLPAFDALNQLTGG [G19N],2
4,LQLGEGVEFDVLPAFDALYQLTGG [G19Y],1.84
5,LQLGEGVEFDVLPAFDALEQLTGG [G19E],1.61
6,LQLGEGVEFDVLPAFDALVQLTGG [G19V],1.45
7,LQLGEGVEFDVLPAFDALCQLTGG [G19C],2.11
8,LQLGEGVEFDVLPAFDALFQLTGG [G19F],1.76
9,LQLGEGVEFDVLPAFDALTQLTGG [G19T],2.01
10,LQLGEGVEFDVLPAFDALAQLTGG [G19A],1.77
11,LQLGEGVEFDVLPAFDALQQLTGG [G19Q],1.61
12,LQLGEGVEFDVLPAFDALDQLTGG [G19D],2.91
13,LQLGEGVEFDVLPAFDALPQLTGG [G19P],1.79
14,LQLGEGVEFDVLPAFDALSQLTGG [G19S],1.54
15,LQLGEGVEFDVLPAFDALKQLTGG [G19K],2.3
16,LQLGEGVEFDVLPAFDALLQLTGG [G19L],2.67
17,LQLGEGVEFDVLPAFDALHQLTGG [G19H],1.98
18,LQLGEGVEFSVLPAFDALGQLTGG [D10S],2
19,LQLGEGVEFTVLPAFDALGQLTGG [D10T],1.36
20,LQLGEGVEFGVLPAFDALGQLTGG [D10G],2.03
21,LQLGEGVEFNVLPAFDALGQLTGG [D10N],3
22,LQLGEGVEFHVLPAFDALGQLTGG [D10H],1.5
